Source: the supplement of paper PMC9170038

System: MS2 coat protein
Test: apparent KD of MS2 coat protein; designed switch direction (-1 OFF switch, 1 ON switch): 1; higher = weaker reporter binding
Summary of the method: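 Each step of the titration lasted 0.8–1.5 h at the lowest concentration and 10–20 min at the highest. The protein, SNAP-549-labelled MS2 coat protein, went from 0.7 or 1.5 nM doubling to 3 µM over RNA switches transcribed on Illumina chips by stalled E. coli RNA polymerase. Normalised cluster fluorescence was curve-fitted, and the per-design median over clusters is given as apparent KD.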

[1] = input ligand: microRNA oligo, concentration not stated
[2] = Eterna round: R95, input ligand: FMN 200 uM
[3] = Eterna round: R95, input ligand: microRNA oligo, concentration not stated
[4] = Eterna round: R95, input ligand: none

Sequence | apparent KD of MS2 coat protein (input ligand: FMN 200 uM) [nM] | apparent KD of MS2 coat protein [1] [nM] | apparent KD of MS2 coat protein (input ligand: none) [nM] | apparent KD of MS2 coat protein [2] [nM] | apparent KD of MS2 coat protein [3] [nM] | apparent KD of MS2 coat protein [4] [nM]
GGUACCAUCACAGGAUAUGCUAUCCUUUGGGUAGCAGAAGGGUGAAACAUGAGGAUCACCCAUGUGGUGCCAGGGCGUGAGCCC [JL SSNG1 1.92] (Eterna round: R96, puzzle: Same State NG 1) | 31.2 | 398 | 689 | – | – | –
AGCCUGAGUCGAGGAUAUUAUGGAUCCUCUAAUACAUGAGGAUCACCCAUGUAAUUAAUUAUACAUGAGAAGGCGACUCAGGCA [SSNG2/12-A3] (Eterna round: R96, puzzle: Same State NG 2) | 98.7 | 69.4 | 25.5 | – | – | –
UAGUAUCAACGAGGAUAUAAUAUGUUCAAUUUUUUAUAUUGUUUACAUGAGGAUCACCCAUGUUAUUAGAAGGCGUAUGGGAUU [JR_SSNG2_Sub083] (Eterna round: R96, puzzle: Same State NG 2) | – | 47.2 | – | – | – | –
AGCUAUCGAAAACGAUAGCAAAAGCAUGUACAUGAGGAUCACCCAUGUCAUGUAUAAGCUUUUUGCUCGUCUUAAAA [Zipper 23 - 12] (puzzle: Sensor for hsa-mir-208a) | – | – | – | 42.7 | 9.86 | 34.4
AAGAAAGUUUACGAGGAUAUGUUCCGCAUAACAUGAGGAUCACCCAUGUGAACAAGAAAGGCGACGCAGAAGGCGUGAGCAAAGA [Atanansori] (Eterna round: R96, puzzle: Same State 2) | 42.4 | 152 | 219 | – | – | –
GGGAAGAGGGACAAGGAUAUGUCAGGAGAGACAUGAGGAUCACCCAUGUGGAGGUUGGAGCAGAGACAGAAGGUGUACGGAGAGA [JR_SS2_Sub010] (puzzle: Same State 2) | – | – | – | 108 | 118 | 145
CGUCCGGCCUGUGCUGGCCGGUUGCAUGUACAUGAGGAUCACCCAUGUUCAUGUGCAGGCUUUUUGCUCGUCUUGUG [salish99_mir208a_013] (puzzle: Sensor for hsa-mir-208a) | – | – | – | 19.4 | 11.2 | 18.9
GUUACAUGAGGAUCACCCAUGUAUGUGUGGGAGUAAGUGUCUUAGGAUAUCUGUUAUUCAAUUUAAGAGAAGGAAGAUUGUUGU [JMF's solution 38] (Eterna round: R96, puzzle: Same State NG 3) | 97.1 | 49.5 | 76.5 | – | – | –
CGUCGUUUGCUAGGAUAUCGCUAUACAUGAGGAUCACCCAUGUUUACCACGCUGGUUUUUCAUACCGAGAAGGAGUCUGAUGUU [salish99_SSNG02_r04_020] (Eterna round: R96, puzzle: Same State NG 2) | 28.8 | 24.8 | 33 | – | – | –
UGUUGUUAACUAGGAUAUGGUCACAUGAGGAUCACCCAUGUAAUGUCGAUGCUAUGUGGAUUUGAUCAGAAGGAGUGGUUAACA [SameState NG2 #99] (Eterna round: R96, puzzle: Same State NG 2) | 66.4 | 58.8 | 58.4 | – | – | –
AGUCCAGCCUGAGCUGGACAAAAGCAUGUACAUGAGGAUCACCCAUGUUCAUGUACAAGCUUUUUGCUCGUCUUGUA [salish99_208a_r3_102x] (puzzle: Sensor for hsa-mir-208a) | – | – | – | 367 | 17.2 | 483
GGUAUCGACGCAGGAUAUGCUAUCCUUUGGGUAGCAGAAGGGUGAACAUGAGGAUCACCCAUGUGGGUGCCAGGGCGUGAGCCC [JL SSNG1 1.82] (Eterna round: R96, puzzle: Same State NG 1) | 694 | 18.2 | 86.8 | – | – | –
AAAGCACAUGAGGAUCACCCAUGUGGAAAUAACACAGGAUAUCUGACCGAAACUAAGGCGAGAGAAGGGUGACCUA [Engeerbi] (puzzle: Same State 1) | – | – | – | 148 | 62.8 | 78.9
GCCGCGUUUCGCGCCUACAUGAGGAUCACCCAUGUUUGUAGGCAGGAUAUCGUUUGCUUUGCGGGCGAGAAGGGCUGUUGUGGC [salish99_SSNG3_R04_017] (Eterna round: R96, puzzle: Same State NG 3) | 35 | 28.9 | 38.8 | – | – | –
UGUUGUAUUACAGGAUAUCUAUUGUUUUUACUUAGAGAAGGGUAUUCACAUGAGGAUCACCCAUGUAUAUACGAGGAAGUUGUG [JMF's solution 83] (Eterna round: R96, puzzle: Same State NG 1) | 39.2 | 31 | 41.8 | – | – | –
UAGAACAAGCUUUUUGCCCGUCUUAUAUAACAUGAGGAUCACCCAUGUAAGGUGAAAGUUAGAGAGUGGAGGUUGAA [JR_SHM208A_Sub048] (puzzle: Sensor for hsa-mir-208a) | – | – | – | 216 | 193 | 156
ACGCAGCUAGGUGAGGAUAUCGGUGGUAAAACAUGAGGAUCACCCAUGUCCGAAGCUCGGACUUCCGAGAAGGCGCCCGGCUGCA [Velaberi] (puzzle: Same State 2) | – | – | – | 13.9 | 64.2 | 96.2
AUAAGGCAAGCUUUUUUCUCGUAGUGUAAACAUGAGGAUCACCCAUGUGCCCACCCUGGAUCUUUGAAUCGCAGAAC [Dianancete] (puzzle: Sensor for hsa-mir-208a) | – | – | – | 26.7 | 16.6 | 27.3
GGCUAUCGCAUUCGAUAGCUUAAGCAUGUACAUGAGGAUCACCCAUGUCAUGUACAGGCUUUUUGCUCGUACUUAUA (puzzle: Sensor for hsa-mir-208a) | – | – | – | 286 | 14.9 | 366
AGAUAGUGUGGAAAGGAUAUACUGUUGAGGACAUGAGGAUCACCCAUGUGGUAGAGGAGGUAAGGGUAGAAGGUUCGGGAUUGGU [JR_SS@_Sub019] (puzzle: Same State 2) | – | – | – | 32.6 | 34.5 | 47.1
AAAAUAAAAUAAAAGGAUAUAAAAUAAAAUACAUGAGGAUCACCCAUGUAUAAAAUAAAAAAAUAAAAGAAGGAAUAAAAAUAAA [SS2 504: MS2 4] (Eterna round: R96, puzzle: Same State 2) | 28.3 | 22.9 | 26.7 | – | – | –
AUGGUGCAGGUACAGGAUAUGUUGCUCGUAACAUGAGGAUCACCCAUGUACCUAUGAGAUUAAAUGCAGAAGGGUGCACACCACU [Mat - Same State 2 - Mod of UCT - D89] (puzzle: Same State 2) | – | – | – | 77.1 | 613 | 158
GUGCGGCUGCCACAGGAUAUACGUGGAUCGACAUGAGGAUCACCCAUGUAUAUCCUAAUAAUUGCGUAGAAGGGUGGUCAGCCAG [Iserinqu] (puzzle: Same State 2) | – | – | – | 90 | 332 | 469
AGUCCAGCCUGAGCUGGACAAAAGUAUGUACAUGAGGAUCACCCAUGUCAUGUACAAGCUUUUUGCUCGUCUUAAAA [Zipper 46 - 14] (puzzle: Sensor for hsa-mir-208a) | – | – | – | 287 | 23.6 | 377
